In the DeepSol protein solubility set:

Assay: soluble on expression in E. coli; label from the status in PepcDB or PDB records

| Sequence | soluble on expression in E. coli |
| --- | --- |
| MGSDKIHHHHHHMALNKPKIVILGAGYGGLMTVTRLTKYVGPNDADITLVNKHNYHYETTWMHEASAGTLHHDRCRYQIKDVINQSRVNFVQDTVKAIKIDEKKVVLANGELQYDYLVIGLGAVPETFGIKGLKEYAFPIANINTSRLLREHIELQFATYNTEAEKRPDRLTIVVGGAGFTGIEFLGELAARVPELCKEYDVDRSLVRIICVEAAPTVLPGFDPELVDYAVHYLEENGVEFKIGTAVQECTPEGVRVGKKDEEPEQIKSQTVVWAAGVRGHPIVEEAGFENMRGRVKVNPDLRAPGHDNVFILGDSSLFMNEDTERPYPPTAQIAMQQGITVAKNLGRLIKGGELEEFKPDIKGTVASLGEHNAVGVVYGRKLKGTPASFMKKVIDNRSLFMIGGLGLTLKKGKFKFF | not soluble |
| MGSDKIHHHHHHVKEIRERGGTVKQQLITTHDGGRLALYSYGTVDAPGERRVVVIGGAFLTALIYRPFSEALSKGLGDGWAVDVYDRRGRGESTPQPADYSMATEIADVRTIMDATGARNLFGHSLGGSVALNAVQEFVGTAHQPDRLAVYDAAVNIDGSVDTSWLDSFERSVNEGNVPHALAKLKKGMQPGTAMARIPEPVLAGLMALVSRTKVNRLFKEVMPSGVGELKAVFDEADHVRDFSVLPPNTRFMVGSKSPRYYKVTAELLHRAVPGSVLQVSPKCVHASIPAAVKELVADISAYYKG | not soluble |
| MGSDKIHHHHHHMIERKRYVTMKGHRGGLAVYVNERCSVDEFLDDLELTLADKSVENGRAVPITFFFGRRYVDEGVVTAVESIVARHDSFSFNGYDSECLTKDEAKALYGERTFHYFGGTARSGHVVDVEGSIVVIGDINPGAVVHATGSIYCLGALRGTVHAGKGGNHQAVIAASVLQPKWISISDFVYEDPDDAPIQALDMGCAFVGETGVEFSRLQTVPLARMDQFAIDSERG | not soluble |
| MNYFVGNSLGVNLTGIEKAIINRLNLFKEMGRPAQCVFLSWNRYLYRNAQNYITSSDYINMYDFFQEATYLERNEPFDWLSYWTDECHYTLKHVENSHDFRIYDQERFLMYAHFQDPKYRILDYVNHFDSQRRKVKRDFYDVRGFLSCSRILVDKQQTLCEFFYNPEGDTKLEKYFSYKDGKPEVQKIIVYYANKQYFFNNETELGAFFIKQLYQHGDLFFSDRNVYTAPIFNLTPESIPVVAVLHSTHIKNIDALDSSPFKNVYKAMFENLSRYRAIIVSTEQQKLDVEKRINHTIPVVNIPVGYSETIDTPVQTLDQRSVKLISVARYSPEKQLHQQIELIKRLVSYVPKIELHMYGFGSESKKLNELIQKYGLENHVYLRGFLSNLDQEYSDAYLSLITSNMEGFSLALLESLAHGVPVISYDIKYGPNELITSDFNGYLITKNDEDALFDKVKYVIDHPEVQQRLSKGSLAKAQQYSKASLIKQWDQFVRLI | not soluble |
| MAHHHHHHMECYDNTKQKDLQEEHDVVRNFRRYYFQEKEEMHIAAIKSISDVLKNSISETNFELFINMNEAKCKLNNFINNNQTQQDIISVPHSKRMTIYPIISSCDIYHHFVVKKYTHNENNFHVLKNVIENNADEFSASLQKSLETIGSSSNIMFLNKHTTILTHSNSDCVKSLIMDVVKNQNKQVSIYFTCTSQVNLNYEEKEKKFDENFLEELNKENINITKIDLTQVKDIINKIDFVLIGSEIVTDNGGIINKKGIKLISELCLLYKKPFYVTCQAYKFLKIDKNKCSKDFYTFCTQTVTNNFNNIYEFVSPDFITLFYTDIGIFPPSNISYELSKLYINDAFYF | soluble |
| MTSGAPPTISTEKSRSKQLRKSSKRTASTVEGTEAKQMRGDTENRSDGEMDDVSTSSEIRHGNGFIENFRSQTGNSSRTTATNERIKKKLVIKNFKANANQNDVAMGDTNIDSTDGSVGRDWAVLSDNVFAILEDRKTVTTLEGLFSKVRSVCDKNQSKVLYDRLVAIVVQFAKSLKESLNAVEQVPLAEDNCEQYLEKFGQIWQAYPVKINLIRNIFLHLDRIALGATDTEILPLWECFMQIFQKTFFPNIFKEFKATKLFNALYMAMQKIMQRYPVDSPLRSLVDMLQTVHVSEEFAKFLISQLREHYNNERIDKVPKMNCNDYMEYCEDQINRYSQLVKVNFDEPSALKDVQATVTNCLIQQAIPEILTHDFDDLIDSDNISDIGRMFNLCRQCVGGEDEVRTQFSKYLKKRGEKLIATCPDEDLVSELLAFKKKVDFIMTGSFKSANDPVKMRQCLSDAFESFVNKQVDRSAELISKHFHTLLHSSNKNVSDDTTLDQMVDEAIVLFRYLRGKDVFEAYYKRGLAKRLFLERSASVDAEKMVLCKLKTECGSAFTYKLEGMFKDMDASENYGRLFNQYLEHMNKEKANFTARVITPEYWPTYDTYEINIPKEMRDTLTDYQDFYRVQHGNRNVKWHHGLASAVISASFRPGCKKELIATMYQTVILLLFNKCETWTVAEIVEHTKILEIEVVKNVLALLGGRDKPKVLQRVEGGGSEKKEGTVENLKNEKFVVNSKFTEKRCRVRIAQVNIKTAVEETKEVKEEVNSDRQYKIDAAVVRIMKARKQLNHQTLMTELLQQLRFPVSTADIKKRLESLIEREYISRDPEEASSYNYVA | not soluble |
| GHMSDLVTKFESLIISKYPVSFTKEQSAQAAQWESVLKSGQIQPHLDQLNLVLRDNTFIVSTLYPTSTDVHVFEVALPLIKDLVASSKDVKSTYTTYRHILRWIDYMQNLLEVSSTDKLEINHD | soluble |
| GILDPEERYEHQLRQLNDMGFFDFDRNVAALRRSGGSVQGALDSLLNGDV | soluble |
| MSAESERKTETIPEWKQEEVDAIVEMIESYESVGVVNIAGIPSRQLQDMRRDLHGTAELRVSRNTLLERALDDVDDGLEDLNGYITGQVGLIGTDDNPFSLFQELEASKTPAPIGAGEVAPNDIVIPEGDTGVDPGPFVGELQSVGADARIQEGSIQVLSDSTVLDTGEEVSQELSNVLNELGIEPKEVGLDLRAVFADGVLFEPEELELDIDEYRSDIQAAAGRAFNLSVNADYPTATTAPTMLQSDRGNAKSLALQAAIEDPEVVPDLVSKADAQVRALASQIDDEEALPEELQGVEADVATEEPTDDQDDDTASEDDADADDAAEEADDDDDDDEDAGDALGAMF | soluble |
| MSLAGEVWLQTHHPDHPLLQTLINGGYHTFANTELQQRQAAGLPPFAHLALLRAEAKDTTSTQQFLATVRKHIPIDNAVECYGPMSAPMPRRAGYERYQLLLSSSQRNTLHRTLNVLIPAIHALPEARRVRWSLDVDPVDLYEGHHHHHH | not soluble |
| MGSDKIHHHHHHMLQIKRKINATQSLMKITRAMEMVARAKVRKIESEYQKFKPFYDEVKRLWALVPAESLDPIFFEEGNRDLIVVITSDMGLCGSFNSEILREAERVISESRDPHLILVGLKAINHFKDGKVLKMYDRFYEIPDFRNGSTIVEDILNFLDGKPARVRVIFSRFKNVLIQRPEVHELLPIKKEEKKREDFEYEPRLEQIAPLIFHYYLSATLMELMFQTKIGEYYARQNAMKNATDNAQEVIRELTLAYNKARQASITQELIEIVTGAEALKEIEK | not soluble |
| MGSDKIHHHHHHMAKQLPDIGDYKYGFKDKDVSIFRAGRGLTKEIVEEISRMKEEPQWMLDFRLKSLDKFYEMPMPQWGGDLNDLDFDEITYYVKPSEKSEKSWDEVPDEIKATFDKLGIPEAEQKYLAGVSAQYESEVVYHNMKEDLEALGIVFKDTDSALKENEDIFREHFGKVIPPTDNKFAALNSAVWSGGSFIYVPKGVKVDTPLQAYFRINSENMGQFERTLIIVDEGAHVHYVEGCTAPVYTTNSLHSAVVEIIIKKDAYCRYTTIQNWANNVYNLVTKRAVCEENATMEWIDGNIGSKLTMKYPAVILKGEGARGLTLSIAIAGKGQHQDAGAKMIHLAPNTSSTIVSKSIAKHGGKVTYRGIVHFGPKAKNSRSNIECDTLIMDNQSTSDTIPYNEIKNDYVSLEHEAKVSKVSEEQLFYLMSRGISEQEATEMIVMGFIEPFTRELPMEYAVEMNRLIKFEMEGSIG | not soluble |
| LLVVGPKFIRANQEYTLVISNFNSQLSKVDLLLKLEGETDNGLSVLNVTKMVDVRRNMNRMINFNMPEDLTAGNYKITIDGQRGFSFHKEAELVYLSKSISGLIQVDKPVFKPGDTVNFRVIVLDTELKPPARVKSVYVTIRDPQRNVIRKWSTAKLYAGVFESDLQIAPTPMLGVWNISVEVEGEELVSKTFEVKEYVLSTFDVQVMPSVIPLEEHQAVNLTIEANYHFGKPVQGVAKVELYLDDDKLKLKKELTVYGKGQVELRFDNFAMDADQQDVPVKVSFVEQYTNRTVVKQSQITVYRYAYRVELIKESPQFRPGLPFKCALQFTHHDGTPAKGISGKVEVSDVRFETTTTSDNDGLIKLELQPSEGTEQLSIHFNAVDGFFFYEDVNKVETVTDAYIKLELKSPIKRNKLMRFMVTCTERMTFFVYYVMSKGNIIDAGFMRPNKQPKYLLQLNATEKMIPRAKILIATVAGRTVVYDFADLAFQELRNNFDLSIDEQEIKPGRQIELSMSGRPGAYVGLAAYDKALLLFNKNHDLFWEDIGQVFDGFHAINENEFDIFHSLGLFARTLDDILFDSANEKTGRNALQSGKPIGKLVSYRTNFQESWLWKNVSIGRSGSRKLIEVVPDTTTSWYLTGFSIDPVYGLGIIKKPIQFTTVQPFYIVENLPYSIKRGEAVVLQFTLFNNLGAEYIADVTLYNVANQTEFVGRPNTDLSYTKSVSVPPKVGVPISFLIKARKLGEMAVRVKASIMLGHETDALEKVIRVMPESLVQPRMDTRFFCFDDHKNQTFPINLDINKKADSGSTKIEFRLNPNLLTTVIKNLDHLLGVPTGCGEQNMVKFVPNILVLDYLHAIGSKEQHLIDKATNLLRQGYQNQMRYRQTDGSFGLWETTNGSVFLTAFVGTSMQTAVKYISDIDAAMVEKALDWLASKQHFSGRFDKAGAEYHKEMQGGLRNGVALTSYVLMALLENDIAKAKHAEVIQKGMTYLSNQFGSINNAYDLSIATYAMMLNGHTMKEEALNKLIDMSFIDADKNERFWNTTNPIETTAYALLSFVMAEKYTDGIPVMNWLVNQRYVTGSFPSTQDTFVGLKALTKMAEKISPSRNDYTVQLKYKKSAKYFKINSEQIDVENFVDIPEDTKKLEINVGGIGFGLLEVVYQFNLNLVNFENRFQLDLEKQNTGSDYELRLKVCASYIPQLTDRRSNMALIEVTLPSGYVVDRNPISEQTKVNPIQKTEIRYGGTSVVLYYDNMGSERNCFTLTAYRRFKVALKRPAYVVVYDYYNTNLNAIKVYEVDKQNLCEICDEEDCPAECGGHHHHHH | soluble |
| MYVVINIDPGSTLNELMAFMTQKTITFSVTDQLSRLCDRTANGDRREVCTQTDDNCFDPPPNKKSKGYNGEDYGSPCSSATPSEPVDLGILTKTNGNSNGNHNWDTESKVLRGLIRSENGRSKSSIKEEPEEASVEDDISTEYMQNQLMQALFPKNQNGSGLANFASLEDNESIEGESGGLSDLGGFNMDSSSPASAIRYKPAYASTKRGVCRVCNREVSLITTHRRRHAITHLGFKTLKCALCYKFFSRQDLATGHFKKDHPTSEFMPFVDTMSPEDERQLVVMMELCFPEETGPRKRKDTDPKKQKVGEVEDSF | not soluble |
| MSLKKIMEYLQHYINQYPHRLALVFEDRHLTYGELSKEIYQASMRYKEVKLNEKVGLMDDHPVNNIINYFAVHQRGGIPCIFNHQWSNERIHQLVKSYDIQWLIKDNHLTLNHDDSIYNDEVIPRNVIHIGFTSGTTGLPKAFYRNEHSWIVSFKENEKLLQHCEETIVAPGPLSHSLSLYACIYALSTGKTFIGQKNFNPLSLMRLINQLNKATAIFVVPTMVQQLISTQRHCSSIKSILSSGAKLTLQQFQQISTLYPQANLIEFFGTSEASFISYNFNQSSPAHSVGKLFPHVETRLLNQDDDAVGLLAVRSEMVFSGYVGQSNQEGSWIKTGDFAYIKNQHLFLVGRESDRIIVGGINVYPTAIESLIMDIEGIDEALVIGIPHAKFGEIAILLYSGKVQLNYRQIKSFLMKQLSRQEVPSKLKKIDHMIYTESGKIARKEMKNKFINGEGHHHHHH | not soluble |
